In the supplement of paper PMC10567573:

B1: FAM189A2 (parent)
chain: CALNALTTTVCLVAAALRYLQIFA
B2: RHOBTB3 (parent)
chain: STTEGIQLAKELGATYLELHSLDD

Variants of: B1
Experiment: protein stability index of a GFP-peptide fusion (GPS, HEK-293T) (PSI 1-6); higher = more stable
Details: c terminus: a fixed tail appended
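Further: lentivirally expressed fusions sorted by FACS into six bins by GFP to DsRed ratio, PSI derived from sequencing read proportions per bin multiplied by bin number.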

Protein stability index of substitutions, site by site:
F23: D 2.47, H 4.92, K 2.94, I 3.76, E 3.61, C 3.26
A5: T 3.6, N 2.07, I 3.46, R 2.98, S 3.5
L17: E 3.03, T 2.14, H 2.72
L12: C 2.39, T 2.96, M 3.44, W 3.65, Y 3.88
Q21: V 2.12, W 2.74, F 2.15, A 3.09, T 3.12, Y 3.35, K 2.07
T7: I 3.6, Q 3.37, N 3.42, W 2.89
T8: M 2.93, G 1.91, F 3.49, R 2.69
L6: T 2.87, W 3.2, R 2.87
A16: D 3.52, Y 2.27, I 4.22
R18: P 1.82, G 3.25, V 3.16, D 3.02
L20: G 2.41, I 2.76
A15: F 4.15, C 2.71, T 1.8, M 3.68, H 2.6, N 3.15
V10: Q 4.03, W 2.05, L 3.21, A 2.46, P 2.12, D 4.46, C 1.42, R 1.62, N 2.53, H 3.15
A24: D 2.51, L 2.63
L3: Q 3, V 2.62, F 3.52, K 1.92, A 3.13, R 2.9
C11: R 3.69, D 2.75, N 1.91
V13: F 3.5, E 3.61, I 2.9, K 2.78
I22: N 2.58, F 2.44, W 3.83, K 2.14, E 3.28
A14: V 1.9, K 2.69, G 2.74, L 3.6, S 4.79, F 3.14, N 3.17, R 2.23
Y19: W 3.75, F 3.29, K 2.19, V 1.9, R 2.4
T9: Y 2.69, E 2.63, Q 3.59, A 3.62
C1: F 4.75, H 2.7, P 1.11, G 2.6, V 1.85, Y 2.99, N 3.61
N4: P 2.66, I 2.87, H 3.53, C 2.79, G 2.34, W 2.84
A2: K 3.83

Variants of: B2
Experiment: as above
Details: c terminus: a fixed tail appended

Protein stability index: each site, then its substitutions
H20: T 3.15, S 3.44, W 1.93, A 2.73, I 1.76, K 2.42, F 2.75, P 4.93, N 4.46, V 1.65, E 3.45, Y 2.44, L 1.41, Q 3.13, C 2.68, D 4.95
L12: Y 4.81, M 4.48, I 3.92, F 3.89, V 4.43, K 5.07, T 4.88, H 4.78, S 4.92, P 4.42, N 4.77, G 4.89, Q 4.31, E 4.99
L22: E 5.93, M 4.32, F 3.47, R 5.07, G 3.38, N 4.68, T 4.15, K 4.68, D 4.96, P 4.54, S 4.47, V 4.3, Y 4.41, C 4.01, A 4.99, H 4.62, W 3.45, Q 4.91, I 3.7
D24: Y 2.7, R 2.26, A 2.17, M 1.38, V 1.57, P 3.16, E 3.35, Q 1.96, W 2.09, N 2.16, S 2.02, T 2.05, H 2.44, K 3.02, I 2.7, G 1.94
D23: L 2.21, Y 2.42, F 1.71, Q 3.55, H 3.71, V 2.29, N 3.13, K 3.14, A 2.43, I 2.07, T 3.75, P 3.66, C 1.87, S 3, W 2.92, R 2.81
A14: S 4.02, P 4.28, V 3.85, W 1.75, M 3.58, N 3.59, R 3.59, H 4.1, L 3.15, Q 3.28, D 2.87, K 3.01, I 3.31, Y 3.7, T 4.18, E 4.25
Y16: T 4.28, E 4.35, H 4.25, N 5.25, D 3.29, V 3.59, Q 4.33, G 4.83, P 5.66, K 4.81, L 2.91, R 4.18, F 3.27, W 2.49, I 3.47, S 4.84
E18: S 3.86, R 2.96, P 3.97, K 3.2, N 4.02, D 4.36, W 1.61, F 2, M 2.66, T 3.71, L 2.41, I 1.86, C 2.62, V 2.38, G 3.72, Y 2.57, H 3.07, A 3.22, Q 3.39
S21: C 3.14, F 1.64, T 3.79, D 4.49, R 2.86, A 2.93, K 3.02, G 4, P 4.06, V 2.93, W 1.03, Y 1.59, Q 3.39, H 3.38, N 4, E 3.93
L19: M 4.38, W 4.68, G 5.31, S 5.01, Y 4.82, N 5, R 4.43, D 5.77, K 5.37, A 4.63, H 5.02, Q 5.55, V 4.68, P 5.37, T 4.96, F 4.21, E 4.76, C 4.71, I 2.38
L17: D 5.55, C 4.14, P 4.88, G 5.66, H 4.8, N 4.6, S 4.61, Y 4.12, K 4.83, V 4.15, R 3.94, F 3.27, T 4.82, I 2.9, Q 4.74, M 4.11, A 5.04, E 4.73
T15: I 1.99, E 4.87, W 2.02, V 2.17, K 4.33, Y 3.49, C 3.59, H 2.69, L 2.1, Q 4.33, S 3.71, N 4.72, D 4.41, F 2.59, G 3.97, R 3.83, M 3.27, P 3.37
G13: C 2.88, D 4.31, A 1.75, S 3.35, T 2.72, Y 1.42, R 1.66, H 2.09, L 1.28, V 2.52, E 2.73, I 2.79, K 3.16, M 1.66, W 1.39, N 2.64, F 2.36, P 4.81
